5 sequences from the supplement of paper PMC5998384 can be followed below.

Data set [1] relates to HeLa Kyoto. Nature of the data set: solubility in G1/S (NP-40 vs SDS abundance) (log2 ratio); higher = more soluble. The following applies: cell cycle stage: G1/S.
Data set [2] deals with HeLa Kyoto. Nature of the data set: melting temperature (median over replicates), in situ; higher = more thermally stable.
Data set [3] has as its system HeLa Kyoto. The data set can be described thus: solubility change mitosis vs G1/S (difference of NP-40 vs SDS log2 ratios) (log2 ratio difference); higher = more soluble in mitosis.
Data set [4] has as its system HeLa Kyoto. Nature of the data set: thermal stability score vs G1/S (z-score of summed log2 fold changes over temperatures); higher = more thermally stable than in G1/S.
Setting [5] is: cell cycle stage: early G1 (4.5 h after nocodazole release).
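Wherever melting temperature (median over replicates), in situ is given: HeLa Kyoto cells synchronized by double thymidine or nocodazole block, proteins quantified by TMT10plex mass spectrometry, three independent biological replicates.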
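Wherever solubility change mitosis vs G1/S (difference of NP-40 vs SDS log2 ratios) is given: synchronized HeLa Kyoto cells (double thymidine block for G1/S, nocodazole release for mitosis), protein amounts in NP-40 versus SDS lysates quantified by mass spectrometry, three biological replicates.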
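Wherever solubility in G1/S (NP-40 vs SDS abundance) is given: HeLa Kyoto cells arrested at G1/S by double thymidine block, proteins quantified by TMT10plex mass spectrometry in mild NP-40 versus SDS extracts, three biological replicates.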
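Wherever thermal stability score vs G1/S (z-score of summed log2 fold changes over temperatures) is given: synchronized HeLa Kyoto cells, proteins quantified by TMT10plex mass spectrometry, three biological replicates, mitosis taken 0.5 h after nocodazole release, G1/S directly after double thymidine block.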

Regarding “MPLLTQQIQDEDDQYSLVASLDNVRNLSTILKAIHFREHATCFATKNGIKVTVENAKCVQANAFIQAGIFQEFKVQEESVTFRINLTVLLDCLSIFGSSPMPGTLTALRMCYQGYGYPLMLFLEEGGVVTVCKINTQEPEETLDFDFCSTNVINKIILQSEGLREAFSELDMTSEVLQITMSPDKPYFRLSTFGNAGSSHLDYPKDSDLMEAFHCNQTQVNRYKISLLKPSTKALVLSCKVSIRTDNRGFLSLQYMIRNEDGQICFVEYYCCPDEEVPESES [RAD1]”, the “solubility in G1/S (log2)” value in the data set with HeLa Kyoto [1] is -0.0871. Further, the values for the melting temperature in the data set on HeLa Kyoto [2] (cell cycle stage: G1/S) and in the data set with HeLa Kyoto [2] (cell cycle stage: mitosis) were 51.4 °C and 51.2 °C, respectively. Besides, the “solubility change mitosis (log2)” value with HeLa Kyoto [3] is -0.225. Moreover, the thermal stability score was 2.13 in the data set on HeLa Kyoto [4] (setting [5]) and 0.628 with HeLa Kyoto [4] (cell cycle stage: mitosis).

With “MPLRLDIKRKLTARSDRVKSVDLHPTEPWMLASLYNGSVCVWNHETQTLVKTFEVCDLPVRAAKFVARKNWVVTGADDMQIRVFNYNTLERVHMFEAHSDYIRCIAVHPTQPFILTSSDDMLIKLWDWDKKWSCSQVFEGHTHYVMQIVINPKDNNQFASASLDRTIKVWQLGSSSPNFTLEGHEKGVNCIDYYSGGDKPYLISGADDRLVKIWDYQNKTCVQTLEGHAQNVSCASFHPELPIIITGSEDGTVRIWHSSTYRLESTLNYGMERVWCVASLRGSNNVALGYDEGSIIVKLGREEPAMSMDANGKIIWAKHSEVQQANLKAMGDAEIKDGERLPLAVKDMGSCEIYPQTIQHNPNGRFVVVCGDGEYIIYTAMALRNKSFGSAQEFAWAHDSSEYAIRESNSIVKIFKNFKEKKSFKPDFGAESIYGGFLLGVRSVNGLAFYDWDNTELIRRIEIQPKHIFWSDSGELVCIATEESFFILKYLSEKVLAAQETHEGVTEDGIEDAFEVLGEIQEIVKTGLWVGDCFIYTSSVNRLNYYVGGEIVTIAHLDRTMYLLGYIPKDNRLYLGDKELNIISYSLLVSVLEYQTAVMRRDFSMADKVLPTIPKEQRTRVAHFLEKQGFKQQALTVSTDPEHRFELALQLGELKIAYQLAVEAESEQKWKQLAELAISKCQFGLAQECLHHAQDYGGLLLLATASGNANMVNKLAEGAERDGKNNVAFMSYFLQGKVDACLELLIRTGRLPEAAFLARTYLPSQVSRVVKLWRENLSKVNQKAAESLADPTEYENLFPGLKEAFVVEEWVKETHADLWPAKQYPLVTPNEERNVMEEGKDFQPSRSTAQQELDGKPASPTPVIVASHTANKEEKSLLELEVDLDNLELEDIDTTDINLDEDILDD [COPB2]”, in the data set on HeLa Kyoto [1], the “solubility in G1/S (log2)” value is -0.298. Besides, the melting temperature in the data set with HeLa Kyoto [2] (cell cycle stage: G1/S) was 51.7 °C; in the data set with HeLa Kyoto [2] (cell cycle stage: mitosis) it was 51.3 °C. In addition, the “solubility change mitosis (log2)” value in the data set with HeLa Kyoto [3] was -0.0942. Moreover, the thermal stability score with HeLa Kyoto [4] (setting [5]) was -0.168; in the data set with HeLa Kyoto [4] (cell cycle stage: mitosis) it was -0.888.

On to “MPLVTRNIEPRHLCRQTLPSVRSELECVTNITLANVIRQLGSLSKYAEDIFGELFTQANTFASRVSSLAERVDRLQVKVTQLDPKEEEVSLQGINTRKAFRSSTIQDQKLFDRNSLPVPVLETYNTCDTPPPLNNLTPYRDDGKEALKFYTDPSYFFDLWKEKMLQDTKDIMKEKRKHRKEKKDNPNRGNVNPRKIKTRKEEWEKMKMGQEFVESKEKLGTSGYPPTLVYQNGSIGCVENVDASSYPPPPQSDSASSPSPSFSEDNLPPPPAEFSYPVDNQRGSGLAGPKRSSVVSPSHPPPAPPLGSPPGPKPGFAPPPAPPPPPPPMIGIPPPPPPVGFGSPGTPPPPSPPSFPPHPDFAAPPPPPPPPAADYPTLPPPPLSQPTGGAPPPPPPPPPPGPPPPPFTGADGQPAIPPPLSDTTKPKSSLPAVSDARSDLLSAIRQGFQLRRVEEQREQEKRDVVGNDVATILSRRIAVEYSDSEDDSSEFDEDDWSD [WASF2]”, for which the “solubility in G1/S (log2)” value with HeLa Kyoto [1] turned out to be 0.196. The melting temperature with HeLa Kyoto [2] (cell cycle stage: G1/S) is 51.8 °C; in the data set on HeLa Kyoto [2] (cell cycle stage: mitosis), 51.5 °C. The “solubility change mitosis (log2)” value in the data set with HeLa Kyoto [3] is -0.146. In addition, the figures for the thermal stability score with HeLa Kyoto [4] (setting [5]) and in the data set with HeLa Kyoto [4] (cell cycle stage: mitosis) were 0.736 and 1.04, respectively.

Take “MPMYQVKPYHGGGAPLRVELPTCMYRLPNVHGRSYGPAPGAGHVQEESNLSLQALESRQDDILKRLYELKAAVDGLSKMIQTPDADLDVTNIIQADEPTTLTTNALDLNSVLGKDYGALKDIVINANPASPPLSLLVLHRLLCEHFRVLSTVHTHSSVKSVPENLLKCFGEQNKKQPRQDYQLGFTLIWKNVPKTQMKFSIQTMCPIEGEGNIARFLFSLFGQKHNAVNATLIDSWVDIAIFQLKEGSSKEKAAVFRSMNSALGKSPWLAGNELTVADVVLWSVLQQIGGCSVTVPANVQRWMRSCENLAPFNTALKLLK [AIMP2]”: the “solubility in G1/S (log2)” value with HeLa Kyoto [1] was determined as 0.321. The melting temperature in the data set with HeLa Kyoto [2] (cell cycle stage: G1/S) worked out at 48.9 °C; in the data set with HeLa Kyoto [2] (cell cycle stage: mitosis), 49.6 °C. In addition, the “solubility change mitosis (log2)” value in the data set on HeLa Kyoto [3] amounted to 0.104. For the same sequence, the thermal stability score was 0.153 with HeLa Kyoto [4] (setting [5]) and 1.22 in the data set with HeLa Kyoto [4] (cell cycle stage: mitosis).

In the case of “MPPAVGGPVGYTPPDGGWGWAVVIGAFISIGFSYAFPKSITVFFKEIEGIFHATTSEVSWISSIMLAVMYGGGPISSILVNKYGSRIVMIVGGCLSGCGLIAASFCNTVQQLYVCIGVIGGLGLAFNLNPALTMIGKYFYKRRPLANGLAMAGSPVFLCTLAPLNQVFFGIFGWRGSFLILGGLLLNCCVAGALMRPIGPKPTKAGKDKSKASLEKAGKSGVKKDLHDANTDLIGRHPKQEKRSVFQTINQFLDLTLFTHRGFLLYLSGNVIMFFGLFAPLVFLSSYGKSQHYSSEKSAFLLSILAFVDMVARPSMGLVANTKPIRPRIQYFFAASVVANGVCHMLAPLSTTYVGFCVYAGFFGFAFGWLSSVLFETLMDLVGPQRFSSAVGLVTIVECCPVLLGPPLLGRLNDMYGDYKYTYWACGVVLIISGIYLFIGMGINYRLLAKEQKANEQKKESKEEETSIDVAGKPNEVTKAAESPDQKDTDGGPKEEESPV [SLC16A1]”, the “solubility in G1/S (log2)” value with HeLa Kyoto [1] is 0.186. In addition, the figures for the melting temperature in the data set on HeLa Kyoto [2] (cell cycle stage: G1/S) and with HeLa Kyoto [2] (cell cycle stage: mitosis) were 55 °C and 57 °C, respectively. For the same sequence, in the data set with HeLa Kyoto [3], the “solubility change mitosis (log2)” value is -0.115. The thermal stability score in the data set on HeLa Kyoto [4] (setting [5]) was -4.15; in the data set on HeLa Kyoto [4] (cell cycle stage: mitosis) it was -10.4.
